In the DeepSol protein solubility set:

Assay: soluble on expression in E. coli; label from the status in PepcDB or PDB records

MDDAELRAVRTLISLTTRYFAVFKNAPVIMAVIDDNGKVVDANNAAAELIGEKPSGKHLRELLPAELCEKVLSTLEKALEEEKKANLRAKVSGKLLRVQLTPISADGRKLCLLTGFSVEDELSKAAREILRLAARAGDAETVIKGMAKKFGELELFSQVKVELDGLREVVREKDGEFVYEFPLRMHRKKGRVTLESRKELSSEEIDMLAETFEDVSILISTLELESKLSAEVRRTVELINELREQLKAVTLSLEILENDGLKSIVKERLGKMLQVAERLAGE
soluble on expression in E. coli: not soluble

MGSDKIHHHHHHMSSVTLSGRGTLGDRQVYRLGYGAMQLAGPGVFGPPKDPEEAVRVLQAAVEAGINHIDTSDFYGPHVTNQLIRKALHPYPDDLCIVTKVSARRDEKGNWLPAMSPAELTQAVEDNLRHLGLEVLEVVNLRSMLSPHGPVEGSLEAPLATLLELKERGLIRHIGLSNVTAKQVADAQKMTPIVCVQNLYNVAHRADDALVDALAAQHIAWVPFFPLGGFTPLQAQELNEVAASLEATPMQVALAWLLQRAPNILLIPGTSSRTHLAENIAAAELVLPAEALRTLDNIATAARR
soluble on expression in E. coli: not soluble

EEKLVKIAGFGGQGVLSMGLTLAEAACRDQKYVSWYPSYGPEQRGGTSNCSVIISGHEIGSPVVYSPGVLIALNKPSLENFAKDVKTGGTIIYDENIGDFEIPNGVTAIKVPASKIATEMGVSRAANTVMLGVLSALGYTGLSESVFVGAIEQTFSKKPKLIPINVEILNAGISWAKE
soluble on expression in E. coli: not soluble

MEWFGIGAGTLRQGDRADFAVIDPTHLDESVDGYHEEAVPYYGGLRRMVNRNDATVVATGVGGTVVFRGGQFGGQFRLEHHHHHH
soluble on expression in E. coli: not soluble

MSLKRRQTNIIGVYLADYGGSFYGELLEGIKKGLALFDYEMIVCSGKKSHLFIPEKMVDGAIILDWTFPTKEIEKFAERGHSIVVLDRTTEHRNIRQVLLDNRGGATQAIEQFVNVGSKKVLLLSGPEKGYDSQERLAVSTRELTRFGIPYEIIQGDFTEPSGYAAAKKILSQPQTEPVDVFAFNDEMAIGVYKYVAETNYQMGKDIRIIGFDNSELGAFVQPRLATIAYSKHRWGMVAAEKIIHLMRGEAAESEHIYTRFIEGESFPSEGHHHHHH
soluble on expression in E. coli: soluble

MINRKIGFIGAGKMGSALMQGIIKAGIVQPENIGASDVYEPFLKELQTKLGIRVSTDNTVIVRESDILILAVKPQTLGSVLENLKNEITSEKLVISIAAGVPLSTYEGALLEGTRVVRVMPNIAATVSEAASGISPGKNATPEDMKDALTIFSAVGTAVQVPESLMDAVTGLSGSGPAFIFPVIEAMADGAVLEGMDRKSALTLAAQTVLGAAKMALETGMHPGELKDMVTSPAGTTIQGVHALEEAGIRAAFMNAVIRASERSRELGKKAAALEHHHHHH
soluble on expression in E. coli: soluble

MGVANDSSPEYRWMSPHRLSDTVILGDCLYFNNIMSQLDLHQNWAPSVRLLNYFKNFNKETLLKIEENDYINSSFFQQKDKRFYPINDDFYHISTGGYGIVFKIDNYVVKFVFEATKLYSPMETTAEFTVPKFLYNNLKGDEKKLIVCAWAMGLNYKLTFLHTLYKRVLHMLLLLIQTMDGQELSLRYSSKVFLKAFNERKDSIKFVKLLSHFYPAVINSNINVINYFNRMFHFFEHEKRTNYEYERGNIIIFPLALYSADKVDTELAIKLGFKSLVQYIKFIFLQMSLLYIKIYELPCCDNFLHADLKPDNILLFDSNEPIIIHLKNKKFVFNERIKSALNDFDFSQVAGIINKKIKNNFKVEHNWYYDFHFFVHTLLKTYPEIEKDIEFSTALEEFIMCTKTDCDKYRLKVSILHPISFLEKFIMRDIFSDWINGGN
soluble on expression in E. coli: not soluble

SLKAIKNGTILTGTGETIKQGTLLIQDGKVLEVGQRVDTPANAKLIDATGKYVTPGLIDVHTHIGVFSEGLGRTGHDFNETTAAATPYIRAIDGIYPFDQGFEDARQSGVTTVQIMPGSANVIGGEMVTVKTAGTVVDEMIVRAPSGMKAAFGENPKNVHGGKGKLPATRMGVAALFRQQLYQAQDYLKRFEKGELEKRDLGMEQLAKVLRKEIPLRVHAHRADDIATVLRMVDEFDLEATIEHCTEGHLIADHIAKYNVKVSVGPTMTSRTKQELVNKGWHTLIELEKHGIPFSITTDHPVVTINHLVTSAIQAVKAGLSEQSAFQAITLRAAEHIGVEQQVGSLEKGKDGDFVIWSDHPFTATAQVEATYINGKCVTGSHC
soluble on expression in E. coli: not soluble

MNMPHKFNQYNKSIPVNKHVIELLENDPSLLPSDIAKQLSISEVEVVKSLPKEMVTMVSGLKTQEILEGLVGFGDVTTIVHSFGSIFEVKAPFPKGKIAHGYYNLMGREGQLHGHLKLDLIQDIALISKPFRGTESHYFGFFNHDGHSVFKIYLGRDKKRQLIPEQVEAFNVLKQEYKLEHHHHHH
soluble on expression in E. coli: soluble

MNRLKSDQKTKLRQFVQWTQVTEAVSLNFLAKANWNIEYAMTLYFDNPNLFAGSTPQPSVDRSNIERLFNQYVDPKDKVGEKRMGPHGINRLLTDLGYEATDRRVLVLAWKFTAQTQCEFSLDEWVKGMTALQADTVQNLRQRIDSINSGLESDKAKFHELYLFAFNYAKSAACRNLDLETAICCWDVLFGQRSTIMTQWIDFLWAQENAAASRLAQNVGASNAKQFKSVWISRDTWNLFWDFILLSKPDLSDYDDEGAWPVLIDQFVDYCRENLNYPKPGNASNDQQMETPSYY
soluble on expression in E. coli: not soluble

MISAPGIGSGLDVSGIISKLMEIEQQPLTQLNTKEAKQQAQLSAFGSLKSVLSTFQDSVKALAKPALFNGYKATLADTTAATVSTSSSASAGTHDIEVQSLAQAQKIKSEAFATTDTVIGSGTLTIEFGTYNEDGTFTANAEKTAKTITIDPAKSTLADIRSAINEANAGVTASIVNDGSGNRLVISSKDSGLANALKISVNDTDGNHTDNAGLSKLAFDASTGGVSNMTETVAARNAVMVIDGIPVTKSSNTINDALEGVTFNLLKANPGTTTTLTVEKDKSNVEAAVNAFVKAYNDLEKTIGNLSRYDAANKQASVLTGDSTMRMIQNRMRAMLGGNQSAAGGINSLSELGISFQKDGTLALDNNKLSAVLNNPDKNIAAFFTTQGGDDTTSVEGFASRLSELIDGMTRSDGLISSRMDGINSTIKGIGKQREALEFRLESVEKRLRAQFTALDTMIASMNQTSNYLQQQLANLPKIGE
soluble on expression in E. coli: not soluble

MGSDKIHHHHHHADTFSVLAHELMHFVYPSGTELLTPNVTKAANKCTQDEVKMMGDSDAVKPIDGWFSKKVTHEDLANIMGLRMVMKMAAKKSVNEEQLKNALETILGGLCIQGKPKNSILPHHHPFEISINTAVRQYPLFSSLYGCRPGDRMFAEAEKFCNPLGGEVNLEDYKIKNDTEDIGGFFNYIMDTANAFNFSIEN
soluble on expression in E. coli: not soluble

MGSDKIHHHHHHMSQLVRPTLELPAGRRKVLLHSCCAPCSGEVMEAMTASGIDYAIYFYNPNIHPVKEYEIRKNENIRFAEEHGIEFIDADYDMDNWFERVKGMENEPERGIRCTACFDMRFERTALYAHEHGFDTITSSLGISRWKDMNQINGCGERAAARYDDLVYWTYNWRKGGGSQRMIEISKRENFYQQEYCGCVYSLRDTNRHRRAQGRERIHLGVKFYGVEEKL
soluble on expression in E. coli: not soluble

MSLQFYSVQTNTLKLATTTFNAEGSMLLSTHWTLNLGFSYNPWNFSDTRKIKHFLIEPGARYWFWQTYAGSFISMYAMGARYNVAWDGLLGGDYRYQGWGYGAGMTYGRSWLLSKRWNMEVEAGLGLLVAPYTKYRCEHCGDKVKSGTYFLPTPKLAFNLVYLFEGHHHHHH
soluble on expression in E. coli: not soluble

MAHHHHHHMSQNKLYKTNYGYNNPILLNKNERNIKTYVNQETMTNKLLTTYNRSPLQSNYEHNIPKIIHSSTIKKQGVINENNGDKIYKPNYRDMNNLYNSKYVFSKNTPEYINGRKQMITVYDNIKNEERNKSINYYKNKNMIKIPSSYNSNNGNKIKSNNVKDGVLQLEKGSIQNVAKNMNTFHNKSNENGKFIKKLNNSNYKEVTSNVDEIRLLNKSLSAKISSSIKTNYEKSNILDHKKNTNVKVSKISIENKKYNIRKKENMKWAPKYNNNNNNNNNKDHKNMIIESVKVVKNPKEINKKKTKIVQNKYKNPLPSYICLHFHDNSLNLNNGLKIFNDMITVDKNQRMKKWNGYEWDVIEKDFHFLIKARYDNKGNIWCINKSYEVLKIMRNKLKNFGHLGKEEIIDIGFDKKNILWCINRKGQLLKWVKTKWDNIQYKGFHKLICFSFDKKGELWAINLKKELAIWNKKNKCWDEKYIKDNLKISCIDFDGDGKLWVVSNSGALLTYSKDQWINFGLVCLDELICISFKKLQE
soluble on expression in E. coli: not soluble

MEEEAAVEKPISLNQQRMNGVVAALKQSNARRVIDLGCGQGNLLKILLKDSFFEQITGVDVSYRSLEIAQERLDRLRLPRNQWERLQLIQGALTYQDKRFHGYDAATVIEVIEHLDLSRLGAFERVLFEFAQPKIVIVTTPNIEYNVKFANLPAGKLRHKDHRFEWTRSQFQNWANKITERFAYNVQFQPIGEADPEVGSPTQMAVFIHRGHHHHHH
soluble on expression in E. coli: soluble

MDEQAVSTSMKTVYIRIYTSVLYTSYTKPGNWSAVDRSAWSVSCSNVYADDDAKYGAHLAIDGEINTTWFTWGVANAGECWWNTVLDRPVTLTGFSVTKQSAYGSGYNLRSAEIKVRKEGETEWVTYPRVLTFRNFKGADPQYAAIEPPIPNVKEFRINCLTPDNYTGFAEINLYVKQLEHHHHHH
soluble on expression in E. coli: soluble

MGHHHHHHSHDGQLFCKKDYWARYGESCHGCSEQITKGLVMVAGELKYHPECFICLTCGTFIGDGDTYTLVEHSKLYCGHCYYQTVVTPVIEQILPDSPGSHLPHTVTLVSIPASSHGKRGLSVSIDPPHGPPGCGTEHSHTVRVQGVDPGCMSPDVKNSIHVGDRILEINGTPIRNVPLDEIDLLIQETSRLLQLTLEHDP
soluble on expression in E. coli: not soluble

SLVIIYDGDSYGISKRIDYMLNSTTSSGKRTGILAIGAHPDDIELGCGASLSYYSNEKVYIISVVMTPGCCGAEYIDRHKESQEALNMLGCNKLIPLNFEDTRLYLQIKEMISSLEYIIENETPQDVEITRVYTMNNTDRHQDHIAVYQASMVACRYIPQILGYETPSTCLSFLPQVFESVDEVHFNKKILALQKHKSQIHRRYIQPEYIIAQAKFRGQQVSHSMCEGFVVHKMVL
soluble on expression in E. coli: soluble

MWKWETENDAKGVVVIAHNILEHTGRYAYVITMLRRNGYHVIMGDLPGQGQTSRAQKGQIDDFNTYHENILEWIKIANEYKIPTFVLGVGLGGLIILNLLEKTELPIEGILLFSPMLELKRDYKGRKNKLISNVGKISKDTRFKVGITPQDLTRNDEIIEETANDGLMLKKVTYSWYNLINEKMKETMDHIRDIKPISALIMYGTNDKILETQSINEMKDKLKSKEMYFKVWDGLYHEIHNEPERDLVMRYVLSFLNNSVNTMGFIVNEEEIEDI
soluble on expression in E. coli: not soluble

GMNNIIVGMGEALWDVLPEGKKIGGAPANFAYHVSQFGFDSRVVSAVGNDELGDEIMEVFKEKQLKNQIERVDYPTGTVQVTLDDEGVPCYEIKEGVAWDNIPFTDELKRLALNTRAVCFGSLAQRNEVSRATINRFLDTMPDIDGQLKIFDINLRQDFYTKEVLRESFKRCNILKINDEELVTISRMFGYPGIDLQDKCWILLAKYNLKMLILTCGINGSYVFTPGVVSFQETPKVPVADTVGAGDSFTAAFCASILNGKSVPEAHKLAVEVSAYVCTQSGAMPELPVILKDRLL
soluble on expression in E. coli: soluble

MGSDKIHHHHHHMALPKKLKALNLFNNGESYLGQVVEVKLPTLSRKMEEYRGGGMNGPVDIDFGQEKIELEWKCGGMMRSVLNQYGATTHNAVQLRFAGSYQRDDSGAVDAVEFVVRGRHKEIDPGTGKSGDDTEFSVKTSASYYKLMINGSTVIEIDLMNMIEIVNGVDLLAPHRRAIGA
soluble on expression in E. coli: not soluble

MPRRHSIVYAVEYDGDIYAITGITHETRNYLYKYIVKEDKWIELYMYFNHVGKTFVCSCGDYILIIADAKYEYYPKSNTWNLFDMSTRNIEYYDMFTKDETPKCN
soluble on expression in E. coli: not soluble
